PMC7513893 (Redox Biology, 2020)

Columns and labels:
[1] = biological target: ADAM17 cytoplasmic domain, wild type (ADAM17cyto^WT), recombinant (UniProt P78536 693-824); assay: ELISA
[2] = biological target: ADAM17 cytoplasmic domain mutant F730A (ADAM17cyto^F730A), recombinant (UniProt P78536 693-824, F730A); assay: ELISA
Chain of ADAM17 cytoplasmic domain mutant F730A (ADAM17cyto^F730A), recombinant (P78536 693-824 F730A): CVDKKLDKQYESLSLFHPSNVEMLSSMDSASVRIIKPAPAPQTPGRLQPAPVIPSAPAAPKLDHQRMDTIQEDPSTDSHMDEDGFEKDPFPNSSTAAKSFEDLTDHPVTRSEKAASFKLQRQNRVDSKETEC

Chain of ADAM17 cytoplasmic domain, wild type (ADAM17cyto^WT), recombinant (P78536 693-824): as the sequence (P78536 693-824 F730A) above, with A38F counted along it

B1: Thioredoxin-1 (Trx-1), recombinant (enzyme, human, UniProt P10599 1-105, looked up)
chain: MVKQIESKTAFQEALDAAGDKLVVVDFSATWCGPCKMIKPFFHSLSEKYSNVIFLEVDVDDCQDVASECEVKCMPTFQFFKKGQKVGEFSGANKEKLEATINELV
Question: Does B1 bind [1]?
Answer: Result: binds

Question: Does B1 bind [2]?
Answer: Result: binds
